# In PMC6826200:
# B1: wild-type FICD (amino acid residues 104-445) [human] / itself (parent)
# chain: LEARAALNQALEMKRQGKREKAQKLFMHALKMDPDFVDALTEFGIFSEEDKDIIQADYLYTRALTISPYHEKALVNRDRTLPLVEEIDQRYFSIIDSKVKKVMSIPKGNSALRRVMEETYYHHIYHTVAIEGNTLTLSEIRHILETRYAVPGKSLEEQNEVIGMHAAMKYINTTLVSRIGSVTISDVLEIHRRVLGYVDPVEAGRFRTTQVLVGHHIPPHPQDVEKQMQEFVQWLNSEEAMNLHPVEFAALAHYKLVYIHPFIDGNGRTSRLLMNLILMQAGYPPITIRKEQRSDYYHVLEAANEGDVRPFIRFIAKCTETTLDTLLFATTEYSVALPEAQP
# Variants of: B1
# Assay: size-exclusion chromatography (peak elution time vs protein concentration, monomer-dimer association fit)
# Details: with itself; non-oxidised protein; parent: 55 nM
row,Variant,Kd [nM]
1,LEARAALNQALEMKRQGKREKAQKLFMHALKMDPDFVDALTEFGIFSEEDKDIIQADYLYTRALTISPYHEKALVNRDRTLPLVEEIDQRYFSIIDSKVKKVMSIPKGNSALRRVMEETYYHHIYHTVAIEGNTLTLSEIRHILETRYCVPGKSLEEQNEVIGMHAAMKYINTTLVSRIGSVTISDVLEIHRRVLGYVDPVEAGRFRTTQVLVGHHIPPHPQDVEKQMQEFVQWLNSEEAMNLHPVEFAALAHYKLVYIHPFIDGNGRTSRLLMNLILMQAGYPPITIRKEQRSDYYHVLEAANEGDVRPFIRFIAKSTETTLDTLLFATTEYSVALPEAQP [chain 1 A149C C318S],831
